From IntAct's records for PubMed 7973632 come the findings set out here.

B1: Receptor-like protein kinase 5 (Arabidopsis thaliana (Mouse-ear cress)), P47735 (parent)
chain: MLYCLILLLCLSSTYLPSLSLNQDATILRQAKLGLSDPAQSLSSWSDNNDVTPCKWLGVSCDATSNVVSVDLSSFMLVGPFPSILCHLPSLHSLSLYNNSINGSLSADDFDTCHNLISLDLSENLLVGSIPKSLPFNLPNLKFLEISGNNLSDTIPSSFGEFRKLESLNLAGNFLSGTIPASLGNVTTLKELKLAYNLFSPSQIPSQLGNLTELQVLWLAGCNLVGPIPPSLSRLTSLVNLDLTFNQLTGSIPSWITQLKTVEQIELFNNSFSGELPESMGNMTTLKRFDASMNKLTGKIPDNLNLLNLESLNLFENMLEGPLPESITRSKTLSELKLFNNRLTGVLPSQLGANSPLQYVDLSYNRFSGEIPANVCGEGKLEYLILIDNSFSGEISNNLGKCKSLTRVRLSNNKLSGQIPHGFWGLPRLSLLELSDNSFTGSIPKTIIGAKNLSNLRISKNRFSGSIPNEIGSLNGIIEISGAENDFSGEIPESLVKLKQLSRLDLSKNQLSGEIPRELRGWKNLNELNLANNHLSGEIPKEVGILPVLNYLDLSSNQFSGEIPLELQNLKLNVLNLSYNHLSGKIPPLYANKIYAHDFIGNPGLCVDLDGLCRKITRSKNIGYVWILLTIFLLAGLVFVVGIVMFIAKCRKLRALKSSTLAASKWRSFHKLHFSEHEIADCLDEKNVIGFGSSGKVYKVELRGGEVVAVKKLNKSVKGGDDEYSSDSLNRDVFAAEVETLGTIRHKSIVRLWCCCSSGDCKLLVYEYMPNGSLADVLHGDRKGGVVLGWPERLRIALDAAEGLSYLHHDCVPPIVHRDVKSSNILLDSDYGAKVADFGIAKVGQMSGSKTPEAMSGIAGSCGYIAPEYVYTLRVNEKSDIYSFGVVLLELVTGKQPTDSELGDKDMAKWVCTALDKCGLEPVIDPKLDLKFKEEISKVIHIGLLCTSPLPLNRPSMRKVVIMLQEVSGAVPCSSPNTSKRSKTGGKLSPYYTEDLNSV
partner: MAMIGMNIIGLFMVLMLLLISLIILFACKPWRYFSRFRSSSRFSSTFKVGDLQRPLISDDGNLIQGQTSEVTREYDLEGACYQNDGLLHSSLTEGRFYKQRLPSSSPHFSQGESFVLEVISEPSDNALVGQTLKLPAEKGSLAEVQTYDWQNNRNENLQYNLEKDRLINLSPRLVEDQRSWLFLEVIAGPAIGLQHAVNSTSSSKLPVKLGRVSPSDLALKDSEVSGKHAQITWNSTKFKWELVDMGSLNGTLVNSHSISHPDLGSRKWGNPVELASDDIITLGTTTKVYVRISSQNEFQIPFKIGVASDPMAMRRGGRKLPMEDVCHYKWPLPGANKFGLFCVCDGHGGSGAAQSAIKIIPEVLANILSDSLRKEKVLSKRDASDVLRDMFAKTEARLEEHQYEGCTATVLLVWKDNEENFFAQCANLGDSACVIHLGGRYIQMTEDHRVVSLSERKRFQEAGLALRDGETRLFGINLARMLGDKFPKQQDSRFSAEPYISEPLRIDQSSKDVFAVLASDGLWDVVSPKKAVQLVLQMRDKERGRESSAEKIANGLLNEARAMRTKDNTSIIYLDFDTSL

The test covers variants of B1. Particulars: with KAPP.
In the case of K711E, the “effect of a mutation on the interaction” value was “disrupting interaction”.
